Experiment [1] deals with His-AMSHΔC-K88A (human, UniProt O95630 1-146, K88A). In words: pull-down.
For experiment [2], the target named is MBP-AMSH(1–206) (human, UniProt O95630 1-206). Put plainly: SPR. In general terms: SPR reads the build-up and loss of mass on a sensor chip optically.

As usually defined, the Kd is a measure of binding affinity in units of concentration. The term koff denotes the first-order rate constant of dissociation. What is called kon is a measure of how fast the partners come together. A low value points to slower complex formation.

B1: GST-CHMP1BΔN (domain or fragment, UniProt Q7LBR1 126-199, looked up)
chain: DVQTQQMEDTMSSTTTLTTPQNQVDMLLQEMADEAGLDLNMELPQGQTGSVGTSVASAEQDELSQRLARLRDQV
As for B1, in experiment [1], the binding result is reported as “binds”.

B2: GST-CHMP1AΔN (domain or fragment, UniProt Q9HD42 123-196, looked up)
chain: DVHTSVMEDSMSSATTLTTPQEQVDSLIMQIAEENGLEVLDQLSQLPEGASAVGESSVRSQEDQLSRRLAALRN
In experiment [2], B2 had a dissociation constant Kd of 1.49 µM, an off-rate (koff) of 0.00581 s⁻¹ and a kon of 3890 M⁻¹ s⁻¹.

The record behind these values is PMC3154637 (Structure (London, England : 1993), 2011).
